Patent US20150056134A1 (MABVAX THERAPEUTICS, published 2015)

B1: 7E3 human anti-sLe^a monoclonal antibody (antibody, V domains shown)
VH: QVQLLESGGGVVQPGRSLRLSCAASGFTFSFYGMHWVRQAPGKGLEWVAAISYDGSNKYYADSVKGRFTISRDNSKNTLYLQMNSLRAEDTAVYYCAKRPNQFYCSDGRCYSIDYWGQGTLVTVSS
VL: not shown
notes: Human IgM/kappa, tested as hybridoma supernatant; also called EF41-7E3; EF41-7E3 (M)
B2: 5B1 human anti-sLe^a monoclonal antibody (antibody, V domains shown)
VH: QVQLVESGGGSVQPGRSLRLSCEASGFTFEAYAMHWVRQPPGKGLEWVSSINWNSGRIAYADSVKGRFTISRDNARNSLYLQMNSLRLEDTAFYYCAKDIRRFSTGGAEFEYWGQGTLVTVSS
VL: QSVLTQPPSASGTPGQRVTISCSGSSSNIGSNFVYWYQQLPGTAPKLLIYRNNQRPSGVPDRFSGSRSGTSASLAISGLRSEDEADYYCAAWDDSLGGHYVFGTGTKVTVL
notes: Human IgG1/lambda; The ADCC assay used recombinant r5B1 made in CHO cells from a full-length IgG1 vector; also called EF41-5B1; EF41-5B1(G)
B3: 5H11 human anti-sLe^a monoclonal antibody (antibody, IgG1, V domains shown)
VH: QVQLLESGGGLVQPGRSLRLSCAASGFTFDEYAMHWVRQAPGKGLEWVSSVSWNSGSIGYADSVKGRFTISRDNAKNSLYLQMNSLRAEDTALYYCAKDIRTYSTGGAEFASWGQGTLVTASS
VL: QSVLTQPPSASGTPGQRVTISCSGSSSNIGSNYVYWYQQVPGTAPKLLIYRNNQRPSGVPDRFSGSKSGTSASLAISGLRSEDEADYYCAAWDDSLSGHYVFGTGTKVTVL
notes: Human IgG/lambda (IgG1), tested as hybridoma supernatant; also called EF41-5H11; EF41-5H11(G)
B4: 9H3 human anti-sLe^a monoclonal antibody (antibody, IgG1, V domains shown)
VH: EVQLLESGGGLVQPGRSLRLSCAASGFTFDDYVMHWVRQAPGKGLEWVSSISWNSGSIGYADSVKGRFIISRDNAKNSLYLQMNSLRAEDTALYYCAKDRRIRGDSGFEGDYWGQGTLVTVSS
VL: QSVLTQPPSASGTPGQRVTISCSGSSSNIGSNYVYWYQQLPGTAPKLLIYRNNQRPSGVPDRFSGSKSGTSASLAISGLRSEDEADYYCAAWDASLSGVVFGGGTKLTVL
notes: Human IgG/lambda (IgG1), tested as hybridoma supernatant; also called EF41-9H3; EF41-9H3 (G)

target: T1, Neutral Avidin (UniProt P02701 25-152); assay: ELISA, hybridoma supernatant on NeutrAvidin-coated control wells without sLe^a
T1 construct: Control coating without captured biotinylated sLe^a; also called NAV; Neutr-Avidin
T1 sequence (P02701 25-152 limits assumed): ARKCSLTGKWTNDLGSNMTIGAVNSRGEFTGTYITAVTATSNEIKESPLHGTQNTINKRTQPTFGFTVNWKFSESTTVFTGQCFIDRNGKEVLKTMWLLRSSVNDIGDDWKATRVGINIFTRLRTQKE

OD (490 nm), 0.05 OD (490 nm):
B1
B2
B3
B4
